This is an account of results in patent US20120276102A1 (Pfizer, published 2012).

T1: human IL-2Rβ (human, UniProt P14784 27-239)
T1 sequence (looked up): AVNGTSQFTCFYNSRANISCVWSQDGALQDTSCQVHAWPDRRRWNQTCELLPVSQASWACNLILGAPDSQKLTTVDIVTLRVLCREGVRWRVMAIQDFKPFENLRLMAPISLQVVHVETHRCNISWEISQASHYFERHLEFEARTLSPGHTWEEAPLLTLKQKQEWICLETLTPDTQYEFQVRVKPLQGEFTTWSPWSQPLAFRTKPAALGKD

B1: AbP (antibody, human IgG1, V domains shown)
VH: QVQLQESGPGLVKPSETLSLTCAVSGYSISSGYYWGWIRQPPGKGLEWIGSISHTGNTYYNPPLKSRVTISVDTSKNQFSLKLSSVTAADTAVYYCARGGGISRPEYWGQGTLVTVSS
VL: SSELTQDPAVSVALGQTVRITCQGDSLRTYYASWYQQKPGQAPVLVIYGKHKRPSGIPDRFSGSSSGNTASLTITGAQAEDEADYYCVSRSAKGNPHVLFGGGTQLTVL
notes: CDR3 graft, residue limits derived as for m29; also called VHP/VL20; VHPTM/VL20
B2: AbO (antibody, human IgG1, V domains shown)
VH: B1 VH
VL: B1 VL with S89T
notes: CDR3 graft, residue limits derived as for m29; also called VHP/VL16; VHPTM/VL16
B3: parental 18A5 antibody (antibody, V domains shown)
VH: B1 VH with P14T, Q110K
VL: SSELTQDPPVSVALGQTVTLTCQGDSLRTYYASWYQQKSGQAPILLLYGKHKRPSGIPDRFSGSTSGDTASLTITGAQAEDEADYYCNSRDSSGNPHVLFGGGTQLTVL
notes: also called 18A5 IgG
B4: AbR (antibody, human IgG1, V domains shown)
VH: B1 VH with G99F, G100M, I102F, S103G
VL: B1 VL with S89T, A92V
notes: CDR3 graft, residue limits derived as for m29; also called VH3/VL18; VH3DM/VL18
B5: AbT (antibody, human IgG1, V domains shown)
VH: B1 VH
VL: B1 VL with S89A, A92N
notes: CDR3 graft, residue limits derived as for m29; also called VHP/VL9; VHPTM/VL9
B6: AbU (antibody, human IgG1, V domains shown)
VH: B1 VH
VL: B1 VL with V88T, S89T, A92N
notes: CDR3 graft, residue limits derived as for m29; also called VHP/VL25; VHPTM/VL25
B7: AbS (antibody, V domains shown)
VH: B1 VH
VL: B1 VL with V88M, A92I, K93W
notes: CDR3 graft, residue limits derived as for m29; also called VHP/VL6; VHPTM/VL6
B8: AbQ (antibody, human IgG1, V domains shown)
VH: B1 VH with G99F, G100M, I102F, S103G
VL: B1 VL with S89A, A92V, K93V
notes: CDR3 graft, residue limits derived as for m29; also called VH3/VL2; VH3DM/VL2

Where a chain is given by its changes, count along the chain named.

The target of one assay is T2, human IL-21R extracellular domain His-Flag fusion protein (human, UniProt Q9HBE5 20-232).
T2 construct: Biotinylated in the HTRF screen; also called hIL-21R-H/F; human IL-21R-H/F
T2 sequence (Q9HBE5 20-232): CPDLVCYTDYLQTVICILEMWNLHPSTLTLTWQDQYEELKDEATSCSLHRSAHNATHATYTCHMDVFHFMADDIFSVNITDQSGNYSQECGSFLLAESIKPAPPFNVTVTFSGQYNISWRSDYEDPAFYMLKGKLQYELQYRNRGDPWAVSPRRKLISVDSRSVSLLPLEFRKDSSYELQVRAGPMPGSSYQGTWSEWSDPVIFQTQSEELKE
Put plainly: SPR, Ab captured on anti-human IgG. The protocol: (§1) The kinetics of binding of anti-IL-21R antibodies to human and murine IL-21R-H/F was tested on a BIACORE™ surface plasmon resonance instrument. Anti-human IgG antibodies (Invitrogen Corporation) were immobilized onto a research-grade carboxy-methyl-dextran chip (CM5) using standard amine coupling. The surface was activated with EDC/NHS for 7 min at a flow of 20 μl/min. The first flow cell was used as a reference surface to correct for bulk refractive index, matrix effects, and nonspecific binding. The anti-human-Fc antibody was diluted to 20 μg/ml in 10 mM sodium acetate buffer (pH 5.0), and 2950-3405 resonance units (RU) were captured on each of the four flow cells. Remaining activated groups were blocked with 1.0 M ethanolamine-HCl (pH 8.5).
(§2) Anti-IL-21R antibodies were diluted to 0.1-0.2 μg/ml in HBS/EP buffer supplemented with 0.2% bovine serum albumin and loaded onto the BIACORE™ chip. Following a brief washing period, solutions of 0-100 nM human IL-21R-H/F or 10-500 nM murine IL-21R-H/F were injected over the chip at a flow rate of 50 μl/min. The association phase was run for 3 min for human and murine IL-21R kinetics, and the dissociation phase was monitored for 15 min for hIL-21R and for 5 min for mIL-21R, followed by two 10 μl injections and one 30 μl injection of glycine (pH 1.5), to regenerate a fully active capturing surface. All binding experiments were done at 25° C. in HBS/EP buffer, and the sample rack was kept at 15° C. Blank and buffer effects were subtracted for each sensorgram using double referencing.
Molecule B1 showed a dissociation constant Kd of 0.615 nM, an off-rate constant (koff) of 0.000119 s⁻¹ and an on-rate (kon) of 194000 M⁻¹ s⁻¹.

The molecule B2 displayed a Kd of 0.475 nM, a dissociation rate constant (koff) of 0.000114 s⁻¹ and a kon of 241000 M⁻¹ s⁻¹.

For the molecule B3, the dissociation constant (Kd) is 4.43 nM, the koff was determined as 0.00108 s⁻¹ and the kon amounted to 243000 M⁻¹ s⁻¹.

B4 gave a Kd of 0.567 nM, a koff of 9.61e-05 s⁻¹ and a kon of 170000 M⁻¹ s⁻¹.

B5 had a Kd of 0.379 nM, a koff of 6.78e-05 s⁻¹ and an on-rate constant (kon) of 179000 M⁻¹ s⁻¹.

Molecule B6 yielded an equilibrium dissociation constant (Kd) of 0.44 nM, a koff of 8.18e-05 s⁻¹ and an on-rate (kon) of 186000 M⁻¹ s⁻¹.

The molecule B7 returned a Kd of 2.02 nM, a koff of 0.000291 s⁻¹ and a kon of 144000 M⁻¹ s⁻¹.

For B8, the affinity, expressed as Kd, was 0.213 nM; the koff came out at 9.34e-05 s⁻¹; the kon was determined as 439000 M⁻¹ s⁻¹.

In the next assay the target is T3, murine IL-21R extracellular domain His-Flag fusion protein (murine, UniProt Q9JHX3 20-237).
T3 construct: Biotinylated in the ELISAs; also called mIL-21R-H/F; murine IL-21R-H/F
The assay is described as follows: SPR, Ab captured on anti-human IgG. The protocol: as §1, §2
Background: Surface plasmon resonance follows binding to a sensor surface in real time, without labels.
Consider B1, for which the Kd stood at 50.8 nM, the off-rate constant (koff) was determined as 0.00508 s⁻¹ and the on-rate (kon) was 99900 M⁻¹ s⁻¹.

The molecule B2 displayed a Kd of 49.2 nM, a koff of 0.00549 s⁻¹ and a kon of 112000 M⁻¹ s⁻¹.

In the case of B3, binding was put at a Kd of 72 nM, the koff worked out at 0.0153 s⁻¹ and the association rate constant (kon) was 212000 M⁻¹ s⁻¹.

For the molecule B4, the dissociation constant (Kd) worked out at 64.5 nM, the koff turned out to be 0.00493 s⁻¹ and the kon was determined as 76500 M⁻¹ s⁻¹.

For B5, the dissociation constant (Kd) worked out at 15.7 nM, the dissociation rate constant (koff) was found to be 0.00331 s⁻¹ and the association rate constant (kon) came to 211000 M⁻¹ s⁻¹.

B6 showed a Kd of 44.2 nM, a koff of 0.00434 s⁻¹ and an on-rate (kon) of 98100 M⁻¹ s⁻¹.

In turn, B7 displayed an equilibrium dissociation constant (Kd) of 16.7 nM, a koff of 0.00332 s⁻¹ and a kon of 199000 M⁻¹ s⁻¹.

In turn, B8 gave a Kd of 68.8 nM, a koff of 0.0207 s⁻¹ and a kon of 301000 M⁻¹ s⁻¹.

Another assay addresses T1, human IL-2Rβ. The assay is described as follows: BIACORE: antibody captured on anti-human IgG; 50 nM analyte injected. The protocol:
(§3) The specificity of binding of a subset of transiently expressed anti-IL-21R binding proteins (here antibodies) was tested on a BIACORE™ 2000 surface plasmon resonance instrument. Anti-human-IgG, anti-murine immunoglobulin antibodies, and murine IL-21R-H/F were immobilized onto a research-grade carboxymethyl-dextran chip (CM5) using standard amine coupling. The sensor chip surface was activated with EDC/NHS for 7 min at a flow rate of 20 μl/min. The first flow cell was used as reference surface to correct for bulk refractive index, matrix effects, and nonspecific binding. […] Remaining activated groups were blocked with 1.0 M ethanolamine (pH 8.0). The molecular weights of the anti-human IgG and the anti-murine IgG were both 150 kD, and the molecular weight of the IL-21R monomer was 27 kD.
(§4) Conditioned media containing anti-IL-21R antibodies and antibody controls (murine anti-human IL-2Rβ and murine anti-human IL-4R(R&D Systems, Minneapolis, Minn.); human anti-human IL-13 (Wyeth, Cambridge, Mass.)) were diluted in HBS/EP buffer supplemented with 0.2% bovine serum and injected onto all four flow cells of the BIACORE™ chip, capturing 500-700 (RU) of antibody on the species-appropriate capture antibody. Following a 5 sec washing period, 50 nM solutions of a positive control protein (murine IL-21R-H/F), two human proteins related to IL-21R (human IL-2Rβ and human sIL-4R(R&D Systems)), or an unrelated His/FLAG-tagged protein (human IL-13-H/F) were injected over the captured antibodies on the chip. The association and dissociation phases were monitored for 120 and 180 sec, respectively, followed by two 5 μl injections of glycine (pH 1.5) to regenerate a fully active capturing surface. All binding experiments were done at 25° C. in HBS/EP buffer. Blank and buffer effects were subtracted for each sensorgram using double referencing.
With B1, the binding result is “no binding (tested: 50 nM)”.

In the case of B2, the binding result was “no binding (tested: 50 nM)”.

Turning to B4, the binding result is reported as “no binding (tested: 50 nM)”.

Turning to B5, the binding result is listed as “no binding (tested: 50 nM)”.

In the case of B6, the binding result is “no binding (tested: 50 nM)”.

For B7, the binding result was “no binding (tested: 50 nM)”.

Take B8: the binding result is reported as “no binding (tested: 50 nM)”.

For another assay, the target named is T4, human soluble IL-4R (human, UniProt P24394 26-232, limits assumed).
T4 construct: also called human sIL-4R
The assay is described as above. The protocol:
as §3, §4
As to B1, the binding result is listed as “no binding (tested: 50 nM)”.

In the case of B2, the binding result is listed as “no binding (tested: 50 nM)”.

As to B4, the binding result is on record as “no binding (tested: 50 nM)”.

For B5, the binding result was “no binding (tested: 50 nM)”.

B6: the binding result is on record as “no binding (tested: 50 nM)”.

Consider B7, for which the binding result was “no binding (tested: 50 nM)”.

Turning to B8, the binding result is “no binding (tested: 50 nM)”.

In the next assay the target is T5, human IL-13-His/FLAG (human, UniProt P35225 35-146, limits assumed).
T5 construct: Unrelated His/FLAG-tagged control; also called human IL-13-H/F
T5 sequence (P35225 35-146 limits assumed): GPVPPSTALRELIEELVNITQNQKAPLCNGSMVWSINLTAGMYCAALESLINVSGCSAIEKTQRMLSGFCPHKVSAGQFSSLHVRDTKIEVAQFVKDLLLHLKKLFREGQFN
Described as above. The protocol: as §3, §4
On to B1, for which the binding result is “no binding (tested: 50 nM)”.

For B2, the binding result is “no binding (tested: 50 nM)”.

Consider B4, for which the binding result was “no binding (tested: 50 nM)”.

Turning to B5, the binding result was “no binding (tested: 50 nM)”.

With B6, the binding result is listed as “no binding (tested: 50 nM)”.

As to B7, the binding result is listed as “no binding (tested: 50 nM)”.

For B8, the binding result is on record as “no binding (tested: 50 nM)”.

As usually defined, the Kd is the constant that tells how readily two partners part at equilibrium. A low value points to a tighter complex. Broadly, the koff is the first-order rate constant of dissociation. Low values mean slow dissociation, high ones fast dissociation. The term kon denotes a measure of how fast the partners come together. A high value points to fast association.
